Here are results for five molecules from patent publication US7737158B2, “Processes for regulating blood glucose in a mammal” (Washington University, priority 2005, dated 2010).

The target of one series is mouse Nampt (Mus musculus, UniProt Q99KQ4). Description: Enzyme-coupled fluorometric assay of immunoprecipitated Nampt-FLAG and recombinant Nampt. The series is classed as biochemical. More on the design: expressed in transfected cells; host or cells: mouse NIH3T3 fibroblasts and mouse HIB-1B preadipocytes (differentiated), stably transfected with pCXN2-Nampt-FLAG; cell extracts or culture supernatant, anti-FLAG immunoprecipitates. To be noted: for kcat: NMN synthesis, 55 min at 37° C., pH8.5, Nampt amount quantified by Western blotting. Here is the method: For immunoprecipitation of intracellular Nampt, whole cell extracts were prepared with ice-cold immunoprecipitation (IP) buffer (phosphate buffer saline [pH 7.4], 0.5% NP-40, 1 mM EDTA,1 mM NaF, 10 μM Trichostatin A, 10 mM nicotinamide, 0.5 mM DTT, protease inhibitor cocktail (Roche)) and mixed with agarose beads conjugated with the mouse monoclonal M2 anti-FLAG antibody (F2426, Sigma) for 3-4 hours at 4° C. For immunoprecipitation of extracellular Nampt, HIB-1B culture supernatants were collected after incubating differentiated HIB-1B cells overnight with DMEM without fetal bovine serum but supplemented with 1 μg/ml insulin and 1 nM triodothyronine, filtered through a 0.22-μm PES membrane, concentrated with Amicon Ultra-15 columns (Millipore, MA), and mixed with anti-FLAG beads for 3-4 hours at 4° C. Immunoprecipitates were washed twice with the IP buffer and twice with PBS.
Immunoprecipitates on anti-FLAG beads were incubated in enzymatic reaction buffer (50 mM Tris-HCl (pH8.5), 100 mM NaCl, 0.25 mM Nicotinamide, 10 mM MgSO4, 1.5% Ethanol, 0.5 mM PRPP, 2.0 mM ATP) for 55 min at 37° C. After this reaction, mouse recombinant nicotinamide mononucleotide adenylyltransferase and yeast alcohol dehydrogenase (Sigma) were added at 10 μg/ml as the final concentration for each, and the mixture was incubated for 5 min at 37° C. Supernatants were then collected by spinning down anti-FLAG beads, and autofluorescence of NADH was measured in a Perkin Elmer LS 50B fluorometer (excitation: 340 nm; emission: 460 nm). Immunoprecipitates bound on anti-FLAG beads were extracted with Laemmli's sample buffer, boiled for 5 minutes, and analyzed by Western blotting with anti-Nampt antibodies. The amounts of Nampt used for enzymatic reactions were quantitated compared to the standards of mouse recombinant Nampt.
The immunoprecipitates from the HIB-1B culture supernatants were subjected to enzyme-coupled fluorometric assays (see Revollo et al., J. Biol. Chem., (2004)279, 50754-50763) to compare enzymatic activity of the intracellular and extracellular forms of Nampt. […] The Nampt enzymatic activity of the bacterially produced recombinant Nampt and the intracellular Nampt-FLAG® immunoprecipitated from HIB-1B and NIH3T3 cellular extracts were also measured and their kcat values calculated (see FIG. 16E). […] It is believed that a post-translational modification may be responsible for the altered enzymatic activity of extracellular Nampt produced by brown adipocytes. […] Despite the extensive mass spectrometric analysis of extracellular Nampt, the precise nature of the modification is currently unknown. Taken together, these findings provide strong evidence that Nampt functions as an NAD biosynthetic enzyme both intra- and extracellularly.
On the technique in general: A western blot detects proteins with antibodies after separation by electrophoresis.

Another series has as its target T1, mouse Nmnat (Mus musculus, UniProt Q9EPA7).
T1 construct: Polyclonal rabbit antisera were produced against the purified full-length His-tagged Nampt and Nmnat recombinant proteins; made in house; host or cells: E. coli BL21(DE3)pLysS
The series can be described thus: Enzyme-coupled fluorometric assay, kinetic characterization of recombinant Nmnat. The series is classed as biochemical. Here is the method: Enzymatic activities of recombinant Nampt and Nmnat proteins were measured by an enzyme-coupled fluorometric assay (see, e.g., FIG. 4B). In this enzyme-coupled reaction, NAD is converted to NADH by alcohol dehydrogenase, and the fluorescence of NADH is detected in a fluorometer. To establish this assay system, optimal reaction conditions for Nmnat were initially examined by varying ATP and Mg^2+ concentrations and pH of the reaction buffer. The resultant reaction buffer for Nmnat contained 50 mM HEPES [pH 7.4], 0.02% BSA, 12 mM MgCl2, 2 mM ATP, 1.5% ethanol, and 30 μg/ml alcohol dehydrogenase to convert NAD to NADH. To determine the kinetic parameters for Nmnat, 30 ng of purified His-tagged Nmnat and varying concentrations of NMN were added to 1 ml of the reaction buffer. The reactions were run at 37° C. and quenched at six time points by the addition of 250 μl of 0.5 M EDTA. The production of NADH was measured by excitation at 340 nm and emission at 460 nm in a fluorometer. For kinetic characterization of Nampt, 500 ng of His-tagged Nampt and varying concentrations of nicotinamide were reacted at 37° C. in 100 μl of a buffer containing 50 mM Tris-HCl [pH 7.5], 0.02% BSA, 12 mM MgCl2, 2.5 mM ATP, 10 μg/ml His-tagged Nmnat, 0.4 mM phosphoribosyl pyrophosphate (PRPP), 1.5% ethanol, and 30 μg/ml alcohol dehydrogenase. NADH production was measured continuously in a fluorometer.
By using this enzyme-coupled fluorometric assay, kinetic parameters of purified recombinant mouse Nampt and Nmnat for nicotinamide and NMN, respectively, were determined (see, e.g., Table 1). The Lineweaver-Burk plots for these two enzymes are shown, for example, in FIGS. 11A and 11B. […] The Km and Vmax of mouse Nmnat are consistent with previously reported values for human NMNAT-1 (Emanuelli et al., J. Biol. Chem. (2001) 276, 406-412).

The mark [1] stands for this setting: purified His-tagged recombinant mouse Nmnat, substrate NMN.

Entries after “also recorded” stand apart in the source; their conditions may differ.

B1: extracellular Nampt-FLAG®: C-terminally FLAG-tagged mouse Nampt (SEQ ID NO:7) secreted from differentiated HIB-1B cells, immunoprecipitated from culture supernatants (protein)
chain: MNAAAEAEFNILLATDSYKVTHYKQYPPNTSKVYSYFECREKKTENSKVRKVKYEETVFYGLQYILNKYLKGKVVTKEKIQEAKEVYREHFQDDVFNERGWNYILEKYDGHLPIEVKAVPEGSVIPRGNVLFTVENTDPECYWLTNWIETILVQSWYPITVATNSREQKKILAKYLLETSGNLDGLEYKLHDFGYRGVSSQETAGIGASAHLVNFKGTDTVAGIALIKKYYGTKDPVPGYSVPAAEHSTITAWGKDHEKDAFEHIVTQFSSVPVSVVSDSYDIYNACEKIWGEDLRHLIVSRSTEAPLIIRPDSGNPLDTVLKVLDILGKKFPVTENSKGYKLLPPYLRVIQGDGVDINTLQEIVEGMKQKKWSIENVSFGSGGALLQKLTRDLLNCSFKCSYVVTNGLGVNVFKDPVADPNKRSKKGRLSLHRTPAGNFVTLEEGKGDLEEYGHDLLHTVFKNGKVTKSYSFDEVRKNAQLNIEQDVAPHGGDYKDDDDK
modifications: C-terminal FLAG tag; Nampt-FLAG (tm) protein
Broadly, the kcat is the maximal rate divided by the concentration of active sites. B1: the kcat with mouse Nampt is 0.380 s⁻¹. For the same molecule, the Nampt enzymatic activity entry in the series with mouse Nampt (immunoprecipitated from culture supernatants of differentiated HIB-1B cells) is listed as “Robust activity; also recorded: has Nampt enzymatic activity”. Further, in the series with mouse Nampt (versus bacterially produced recombinant Nampt), the “kcat of extracellular Nampt-FLAG, fold higher than recombinant Nampt” value is ~11 fold. In the series with mouse Nampt (versus intracellular Nampt-FLAG from NIH3T3 cells), the “kcat of extracellular Nampt-FLAG, fold higher than intracellular Nampt-FLAG from NIH3T3 cells” value is ~5 fold. In the series with mouse Nampt (versus intracellular Nampt-FLAG from differentiated HIB-1B cells), the “kcat of extracellular Nampt-FLAG, fold higher than intracellular Nampt-FLAG from differentiated HIB-1B cells” value is recorded as ~2 fold.

B2: Nmnat: Bacterially produced, His-tagged recombinant mouse nicotinamide/nicotinic acid mononucleotide adenylyltransferase (protein, UniProt Q9EPA7 1-285, looked up)
Nicotinamide/nicotinic acid …: MDSSKKTEVVLLACGSFNPITNMHLRLFELAKDYMHATGKYSVIKGIISPVGDAYKKKGLIPAHHRIIMAELATKNSHWVEVDTWESLQKEWVETVKVLRYHQEKLATGSCSYPQSSPALEKPGRKRKWADQKQDSSPQKPQEPKPTGVPKVKLLCGADLLESFSVPNLWKMEDITQIVANFGLICITRAGSDAQKFIYESDVLWRHQSNIHLVNEWITNDISSTKIRRALRRGQSIRYLVPDLVQEYIEKHELYNTESEGRNAGVTLAPLQRNAAEAKHNHSTL
modifications: His tag
notes: Bacterially produced, His-tagged recombinant mouse nicotinamide/nicotinic acid mononucleotide adenylyltransferase
In general, Vmax refers to the top rate of the reaction or transport when substrate is in excess. In general, Km refers to the concentration of substrate that gives half-maximal velocity. B2: the “synthesis of NAD from NMN and ATP” value in the series with mouse Nmnat (isolated reactions) was “catalyzed the synthesis of NAD”. In the series with mouse Nmnat (setting [1]), the Vmax is 31.4 µmol/min/mg and the kcat is 20.0 s⁻¹. Further, in the series with mouse Nmnat (purified His-tagged recombinant mouse Nmnat, substrate NMN, 37° C.), the Km worked out at 20.1 µM.

B3: intracellular Nampt-FLAG® from NIH3T3 cells: FLAG-tagged mouse Nampt immunoprecipitated from NIH3T3 cellular extracts (protein, UniProt Q99KQ4 1-491, looked up)
Nicotinamide …: MNAAAEAEFNILLATDSYKVTHYKQYPPNTSKVYSYFECREKKTENSKVRKVKYEETVFYGLQYILNKYLKGKVVTKEKIQEAKEVYREHFQDDVFNERGWNYILEKYDGHLPIEVKAVPEGSVIPRGNVLFTVENTDPECYWLTNWIETILVQSWYPITVATNSREQKKILAKYLLETSGNLDGLEYKLHDFGYRGVSSQETAGIGASAHLVNFKGTDTVAGIALIKKYYGTKDPVPGYSVPAAEHSTITAWGKDHEKDAFEHIVTQFSSVPVSVVSDSYDIYNACEKIWGEDLRHLIVSRSTEAPLIIRPDSGNPLDTVLKVLDILGKKFPVTENSKGYKLLPPYLRVIQGDGVDINTLQEIVEGMKQKKWSIENVSFGSGGALLQKLTRDLLNCSFKCSYVVTNGLGVNVFKDPVADPNKRSKKGRLSLHRTPAGNFVTLEEGKGDLEEYGHDLLHTVFKNGKVTKSYSFDEVRKNAQLNIEQDVAPH
modifications: FLAG tag
notes: FLAG-tagged mouse Nampt immunoprecipitated from NIH3T3 cellular extracts
As for B3, in the series with mouse Nampt, the kcat came to 0.082 s⁻¹.

B4: extracellular Nampt: Extracellular Nampt from HIB-1B culture supernatants (protein)
chain: B3 Nicotinamide …
On to B4, for which the “enzymatic activity after treatment with calf intestinal phosphatase (CIP)” value with mouse Nampt (extracellular Nampt from HIB-1B culture supernatants) is “did not change”.

B5: intracellular Nampt-FLAG® from differentiated HIB-1B cells: FLAG-tagged mouse Nampt immunoprecipitated from differentiated HIB-1B cellular extracts (protein, UniProt Q99KQ4 1-491, looked up)
Nicotinamide …: B3 Nicotinamide …
modifications: FLAG tag
notes: FLAG-tagged mouse Nampt immunoprecipitated from differentiated HIB-1B cellular extracts
On to B5, for which the kcat with mouse Nampt turned out to be 0.182 s⁻¹.
